In the supplement of paper PMC7125110:
± gives the standard error. Fewer inactive variants are shown than the library holds.

B1: glmS ribozyme (parent)
chain: AUAAAAGCGCCAGAACUACAGAAAUGUAGUUGACGAGGAGGAGGUUUAUCGAAUUUUCGGCGGAUGCCUCCAAA

Columns and labels:
Settings in all cases: with glucosamine-6-phosphate
glucosamine-6-phosphate [1] = variants of: B1; experiment: self-cleavage kobs at 40 uM GlcN6P; higher = faster cleavage; RNA array
How it was run: (§1)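 Sequenced MiSeq chips were the platform: E. coli RNA polymerase transcribed barcoded ribozyme variants on them in situ, and a hybridised Cy3 probe tracked these at 37 °C. After glucosamine-6-phosphate (40 μM to 10 mM) in HEPES/KCl/Mg(OAc)2 buffer was flowed in, tiles were imaged over ~14 h. Signals normalised to baseline and to non-cleaving reference variants were reduced to per-tile medians and fit to one- or two-exponential decays to obtain kobs. kcat and KM were derived through weighted Michaelis–Menten fits across concentrations.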

glucosamine-6-phosphate [2] = variants of: B1; experiment: self-cleavage kobs at 640 uM GlcN6P; higher = faster cleavage; RNA array
How it was run: as §1

glucosamine-6-phosphate [3] = variants of: B1; experiment: self-cleavage kobs at 160 uM GlcN6P; higher = faster cleavage; RNA array
How it was run: as §1

glucosamine-6-phosphate [4] = variants of: B1; experiment: self-cleavage kobs at 10000 uM GlcN6P; higher = faster cleavage; RNA array
How it was run: as §1

glucosamine-6-phosphate [5] = variants of: B1; experiment: self-cleavage kobs at 2500 uM GlcN6P; higher = faster cleavage; RNA array
How it was run: as §1

Variant | self-cleavage kobs at 40 uM GlcN6P (glucosamine-6-phosphate [1]) [s⁻¹] | self-cleavage kobs at 640 uM GlcN6P (glucosamine-6-phosphate [2]) [s⁻¹] | self-cleavage kobs at 160 uM GlcN6P (glucosamine-6-phosphate [3]) [s⁻¹] | self-cleavage kobs at 10000 uM GlcN6P (glucosamine-6-phosphate [4]) [s⁻¹] | self-cleavage kobs at 2500 uM GlcN6P (glucosamine-6-phosphate [5]) [s⁻¹]
G9A U31G C68G | < 1e-05 | < 1e-05 |  |  | 
C10A U57C | < 1e-05 |  | < 1e-05 |  | 
C10U C34A | < 1e-05 | < 1e-05 | < 1e-05 | < 1e-05 | 
C10A U49A C61U G62U | < 1e-05 |  |  |  | 
C10G G29U U31C A36U C68A C71U | < 1e-05 |  |  |  | 
G9U G37A C67U C71G | < 1e-05 |  |  |  | 
C10G U49G G60C | < 1e-05 | < 1e-05 |  |  | 
G9C A39G | < 1e-05 |  |  | < 1e-05 | < 1e-05
C10U A33U G35A | < 1e-05 |  |  | < 1e-05 | 
C10A A39U | < 1e-05 | < 1e-05 | < 1e-05 | < 1e-05 | 
G9U G60U | < 1e-05 | < 1e-05 |  |  | < 1e-05
G9A G60A | < 1e-05 | < 1e-05 |  |  | 
G9U G40U G44C G60U | < 1e-05 |  |  | < 1e-05 | 
C10A G13C | < 1e-05 |  | < 1e-05 | < 1e-05 | < 1e-05
C10A G38U G59A G60A G62A A64U G66C C68G | 0.000187 ± 6.6e-05 |  |  |  | 
G9C G41U C50A | < 1e-05 |  |  |  | 
G9A C67U | < 1e-05 |  | < 1e-05 |  | < 1e-05
G9A C10G G32U A48G | < 1e-05 |  |  |  | 
G9A A39G | < 1e-05 |  | < 1e-05 |  | 
C10A G37C A42C C70A | < 1e-05 |  |  |  | 
C10A C11U A36U C70U C71G | 0.000371 ± 9.5e-05 | 0.000527 ± 0.00015 |  | 0.000335 ± 6.3e-05 | 
G9U G66A | < 1e-05 | < 1e-05 | < 1e-05 | < 1e-05 | 
G9U A15G | < 1e-05 | < 1e-05 |  |  | < 1e-05
G9U U30G | < 1e-05 | < 1e-05 |  | < 1e-05 | 
G9C A52U | < 1e-05 | < 1e-05 | < 1e-05 | < 1e-05 | < 1e-05
C10G A33U G35U G60U | < 1e-05 |  |  | < 1e-05 | 

Variant | self-cleavage kobs at 40 uM GlcN6P (glucosamine-6-phosphate [1]) [s⁻¹] | self-cleavage kobs at 640 uM GlcN6P (glucosamine-6-phosphate [2]) [s⁻¹] | self-cleavage kobs at 160 uM GlcN6P (glucosamine-6-phosphate [3]) [s⁻¹] | self-cleavage kobs at 10000 uM GlcN6P (glucosamine-6-phosphate [4]) [s⁻¹] | self-cleavage kobs at 2500 uM GlcN6P (glucosamine-6-phosphate [5]) [s⁻¹]
C10U G37C G66A | < 1e-05 |  |  |  | 
C10U G29C C61A | < 1e-05 |  |  |  | 
G9C C34G | < 1e-05 | < 1e-05 | < 1e-05 | < 1e-05 | < 1e-05
G9A C58U | < 1e-05 | < 1e-05 | < 1e-05 | < 1e-05 | < 1e-05
G9U A53U | < 1e-05 | < 1e-05 | < 1e-05 | < 1e-05 | 
G9U G43U C70G | < 1e-05 |  |  | < 1e-05 | 
C10A C16A G41U | < 1e-05 |  |  | < 1e-05 | 
C10G A14U C34A U49G | < 1e-05 |  |  |  | 
C10U A15U G44U U46G G63U A64G | < 1e-05 |  |  | < 1e-05 | 
C10G C50A | < 1e-05 | < 1e-05 |  |  | 
G9U G35C G43A | < 1e-05 | < 1e-05 | < 1e-05 |  | 
C10G G59C | < 1e-05 | < 1e-05 |  |  | 
C10G G29A | < 1e-05 | < 1e-05 |  | < 1e-05 | 
C10U A12U G51U U56A | < 1e-05 |  |  | < 1e-05 | 
C10U A64C | < 1e-05 | < 1e-05 |  |  | < 1e-05
C10U A64U | < 1e-05 | < 1e-05 | < 1e-05 | < 1e-05 | < 1e-05
C10A G37U A42U C67G C68G | 7.19e-05 ± 2e-05 |  |  |  | 
G9C G62A | < 1e-05 | < 1e-05 |  | < 1e-05 | 
G9C C10A A52C C61U | < 1e-05 |  |  | < 1e-05 | 
C10G A15G A64G | < 1e-05 |  |  |  | 
G9A C16U A42G C50G | 0.000108 ± 4.9e-05 |  |  |  | 
G9C A14G | < 1e-05 | < 1e-05 | < 1e-05 | < 1e-05 | < 1e-05
C10G A52C U56A C71U | < 1e-05 |  |  |  | 
C10A C16A G51U C68G C71A | 7.7e-05 ± 2e-05 | 0.00052 ± 0.00016 |  | 8.53e-05 ± 1.6e-05 | 
G9C G13U G44C U45G | < 1e-05 | < 1e-05 |  |  | < 1e-05
G9U U31A C34U | < 1e-05 |  | < 1e-05 |  | 
